Assay [1] addresses MsSepF_(core) (C-terminal FtsZ-binding core of Methanobrevibacter smithii SepF, residues 54-149) (Methanobrevibacter smithii). As to the kind of experiment: not stated; MsSepFcore in solution (Supplementary Fig. 6); method not given.
Assay [2] has the same target. As to the kind of experiment: SPR; Biacore T200, 25 °C, 150 mmol/L NaCl, 25 mmol/L Hepes pH 8; MsSepFcore amine-coupled on CM5 (3200 and 5000 RU), FtsZCTD peptide flowed over; steady-state fit; apparent Kd. A general note: SPR reads the build-up and loss of mass on a sensor chip optically.

Broadly, the stoichiometry N is the number of molecules, sites or subunits per partner or assembly.

Chain of MsSepF_(core) (C-terminal FtsZ-binding core of Methanobrevibacter smithii SepF, residues 54-149) (Methanobrevibacter smithii) (main, as listed by the source): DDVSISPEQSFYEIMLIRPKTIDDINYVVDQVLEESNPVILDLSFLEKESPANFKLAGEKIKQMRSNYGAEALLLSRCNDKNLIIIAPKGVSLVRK

For “MsSepF_(core) (C-terminal FtsZ-binding core of Methanobrevibacter smithii SepF, residues 54-149) (domain or fragment)”, in assay [1], the stoichiometry N was 2.

On to NEDQLDDFIDGIF [FtsZCTD peptide (C-terminal domain of Methanobrevibacter smithii FtsZ)], for which the Kd in assay [2] was found to be 84 µM.

The values are drawn from PMC8178401.
